The target in the assay is T1, C1-esterase.
T1 sequence (P09871 16-688, species assumed, looked up): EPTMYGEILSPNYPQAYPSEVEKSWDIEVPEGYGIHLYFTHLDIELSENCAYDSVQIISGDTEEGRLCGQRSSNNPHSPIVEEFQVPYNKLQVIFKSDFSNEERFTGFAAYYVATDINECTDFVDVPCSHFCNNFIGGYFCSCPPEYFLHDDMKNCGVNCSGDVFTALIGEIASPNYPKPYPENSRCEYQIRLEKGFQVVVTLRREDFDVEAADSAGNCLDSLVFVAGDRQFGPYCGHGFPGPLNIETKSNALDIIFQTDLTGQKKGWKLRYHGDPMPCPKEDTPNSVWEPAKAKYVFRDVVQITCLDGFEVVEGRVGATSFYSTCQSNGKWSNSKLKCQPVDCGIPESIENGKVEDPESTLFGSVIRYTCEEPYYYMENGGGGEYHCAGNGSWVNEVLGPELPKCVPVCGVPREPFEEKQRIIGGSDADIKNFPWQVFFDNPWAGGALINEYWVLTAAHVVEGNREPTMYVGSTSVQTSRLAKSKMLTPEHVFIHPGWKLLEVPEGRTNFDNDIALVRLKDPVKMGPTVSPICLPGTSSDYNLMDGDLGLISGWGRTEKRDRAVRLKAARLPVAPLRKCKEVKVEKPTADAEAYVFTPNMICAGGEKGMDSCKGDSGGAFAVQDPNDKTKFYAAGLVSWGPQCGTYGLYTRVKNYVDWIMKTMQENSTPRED
Nature of the assay: cell-based or functional assay.

Several values for one entry are separate records, joined by “and”; a condition that tells them apart may be missing. Identical values can stand only once.

ALD-PEG(40 k)-C1 INH, mono PEGylated (PEG#/C1 INH = 1), sequence (P05155 23-500 limits assumed): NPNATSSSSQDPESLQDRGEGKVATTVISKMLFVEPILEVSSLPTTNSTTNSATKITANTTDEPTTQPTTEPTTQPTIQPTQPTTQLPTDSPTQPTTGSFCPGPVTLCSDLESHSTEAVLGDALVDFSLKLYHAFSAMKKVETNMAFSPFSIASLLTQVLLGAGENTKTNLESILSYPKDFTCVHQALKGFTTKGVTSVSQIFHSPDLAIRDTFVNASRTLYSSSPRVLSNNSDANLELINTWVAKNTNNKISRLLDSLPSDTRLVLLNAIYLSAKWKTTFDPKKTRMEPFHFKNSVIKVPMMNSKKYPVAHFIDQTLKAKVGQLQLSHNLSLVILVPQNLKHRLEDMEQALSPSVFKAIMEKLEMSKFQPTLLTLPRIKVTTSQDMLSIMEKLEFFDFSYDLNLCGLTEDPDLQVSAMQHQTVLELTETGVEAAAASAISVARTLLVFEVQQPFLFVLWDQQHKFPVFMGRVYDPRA
5k mPEG-BCN-C1 INH, sequence (P05155 23-500 limits assumed): as above
ALD-PEG(40 k)-C1 INH, di PEGylated (PEG#/C1 INH = 2), sequence (P05155 23-500 limits assumed): as above
ALD-PEG2(40 k)-C1 INH, mono PEGylated (PEG#/C1 INH = 1), sequence (P05155 23-500 limits assumed): as above
ALD-PEG2(40 k)-C1 INH, di PEGylated (PEG#/C1 INH = 2), sequence (P05155 23-500 limits assumed): as above

For “5k mPEG-BCN-C1 INH (from UniProt P05155 23-500)”, the % C1 INH Activity is 100%, the C1 in activity is 3.7 U/mg and the Specific Activity (U/mg) is 7.3 U/mg.
In the case of “ALD-PEG2(40 k)-C1 INH, di PEGylated (PEG#/C1 INH = 2) (from UniProt P05155 23-500)”, the % C1 INH Activity is 43% and the Specific Activity (U/mg) was found to be 3.9 U/mg.
On the same counts, the results for “ALD-PEG2(40 k)-C1 INH, mono PEGylated (PEG#/C1 INH = 1) (from UniProt P05155 23-500)” are 81% and 7.4 U/mg.
For “ALD-PEG(40 k)-C1 INH, di PEGylated (PEG#/C1 INH = 2) (from UniProt P05155 23-500)” the same measures were 75% and 6.8 U/mg.
Take “ALD-PEG(40 k)-C1 INH, mono PEGylated (PEG#/C1 INH = 1) (from UniProt P05155 23-500)”: the % C1 INH Activity was found to be 67%; the Specific Activity (U/mg) is 6.1 U/mg and 6.9 U/mg.
